19 variants from the supplement of paper PMC7125110 can be followed below.

The labels stand for the following.
B1: glmS ribozyme (parent)
chain: AUAAAAGCGCCAGAACUACAGAAAUGUAGUUGACGAGGAGGAGGUUUAUCGAAUUUUCGGCGGAUGCCUCCAAA

± gives the standard error. For part of these data: Variants at the floor of the assay were thinned out. Bounds are passed on as bounds.

Common to all, as to conditions: with glucosamine-6-phosphate
In series [1] the parent is B1. Nature of the series: kcat; higher = faster cleavage; RNA array. The essentials: (§1)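 Barcoded ribozyme variants on sequenced MiSeq chips were transcribed in situ by E. coli RNA polymerase and followed at 37 °C through a hybridised Cy3 probe. Glucosamine-6-phosphate at 40 μM to 10 mM in HEPES/KCl/Mg(OAc)2 buffer was flowed in, and tiles were imaged over ~14 h. Signals were normalised to baseline and to non-cleaving reference variants, and per-tile medians were fit to one- or two-exponential decays to give kobs. Weighted Michaelis–Menten fits across concentrations gave kcat and KM.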

Variants of B1 are the subject of series [2]. The series is described as follows: KM; higher = weaker cofactor use; RNA array. A digest of the protocol: as §1
Series [3] covers variants of B1. The series is described as follows: self-cleavage kobs at 640 uM GlcN6P; higher = faster cleavage; RNA array. A digest of the protocol:
as §1

Variants of B1 are the subject of series [4]. The series is described as follows: self-cleavage kobs at 2500 uM GlcN6P; higher = faster cleavage; RNA array. A digest of the protocol:
as §1

Variants of B1 are the subject of series [5]. The series is described as follows: self-cleavage kobs at 10000 uM GlcN6P; higher = faster cleavage; RNA array. A digest of the protocol: as §1
Series [6] covers variants of B1. Nature of the series: self-cleavage kobs at 40 uM GlcN6P; higher = faster cleavage; RNA array. A digest of the protocol: as §1
Series [7] covers variants of B1. The series is described as follows: self-cleavage kobs at 160 uM GlcN6P; higher = faster cleavage; RNA array. A digest of the protocol:
as §1

In the case of A12U G44C, in the series with glucosamine-6-phosphate [1], the kcat is 0.000244 ± 2.8e-05 s⁻¹. Also, the KM in the series with glucosamine-6-phosphate [2] turned out to be 2040 ± 560 µM. In addition, in the series with glucosamine-6-phosphate [3], the “self-cleavage kobs at 640 uM GlcN6P” value was 5.33e-05 ± 1.1e-05 s⁻¹. In the series with glucosamine-6-phosphate [4], the “self-cleavage kobs at 2500 uM GlcN6P” value stood at 0.000168 ± 2.9e-05 s⁻¹. Besides, the “self-cleavage kobs at 10000 uM GlcN6P” value in the series with glucosamine-6-phosphate [5] was 0.000195 ± 2.3e-05 s⁻¹.

As for U31C A52U, in the series with glucosamine-6-phosphate [1], the turnover number (kcat) turned out to be 7.02e-05 ± 1.4e-05 s⁻¹. For the same variant, the “self-cleavage kobs at 2500 uM GlcN6P” value in the series with glucosamine-6-phosphate [4] is 5.04e-05 ± 6e-06 s⁻¹. Moreover, the “self-cleavage kobs at 10000 uM GlcN6P” value in the series with glucosamine-6-phosphate [5] came out at 5.66e-05 ± 7.1e-06 s⁻¹.

As for G7U G13A, the kcat with glucosamine-6-phosphate [1] was below 1e-05 s⁻¹. In addition, the “self-cleavage kobs at 40 uM GlcN6P” value in the series with glucosamine-6-phosphate [6] was below 1e-05 s⁻¹. Moreover, in the series with glucosamine-6-phosphate [4], the “self-cleavage kobs at 2500 uM GlcN6P” value is below 1e-05 s⁻¹.

For the variant A33U C71A, in the series with glucosamine-6-phosphate [1], the kcat came to 4.74e-05 ± 6.5e-07 s⁻¹. Also, the Michaelis-Menten constant (KM) in the series with glucosamine-6-phosphate [2] came to 919 ± 65 µM. Moreover, in the series with glucosamine-6-phosphate [6], the “self-cleavage kobs at 40 uM GlcN6P” value is below 1e-05 s⁻¹. The “self-cleavage kobs at 2500 uM GlcN6P” value in the series with glucosamine-6-phosphate [4] stood at 3.52e-05 ± 8.5e-06 s⁻¹. The “self-cleavage kobs at 10000 uM GlcN6P” value in the series with glucosamine-6-phosphate [5] was 4.32e-05 ± 6.2e-06 s⁻¹.

In the case of A48U U55A, in the series with glucosamine-6-phosphate [1], the kcat worked out at 0.000475 ± 0.0001 s⁻¹. In the series with glucosamine-6-phosphate [2], the KM amounted to 1310 ± 530 µM. Also, the “self-cleavage kobs at 160 uM GlcN6P” value with glucosamine-6-phosphate [7] stood at 4.63e-05 ± 1.3e-05 s⁻¹. Besides, in the series with glucosamine-6-phosphate [3], the “self-cleavage kobs at 640 uM GlcN6P” value came to 0.000183 ± 2.7e-05 s⁻¹. For the same variant, the “self-cleavage kobs at 2500 uM GlcN6P” value in the series with glucosamine-6-phosphate [4] was 0.000269 ± 3.9e-05 s⁻¹. The “self-cleavage kobs at 10000 uM GlcN6P” value with glucosamine-6-phosphate [5] was 0.000532 ± 0.0001 s⁻¹.

For A39C U46C, the kcat with glucosamine-6-phosphate [1] came out at 0.00261 ± 0.00017 s⁻¹. Moreover, the KM in the series with glucosamine-6-phosphate [2] came out at 2740 ± 280 µM. Moreover, the “self-cleavage kobs at 40 uM GlcN6P” value with glucosamine-6-phosphate [6] amounted to 3.41e-05 ± 9.8e-06 s⁻¹. In addition, the “self-cleavage kobs at 160 uM GlcN6P” value with glucosamine-6-phosphate [7] was 0.000168 ± 3.9e-05 s⁻¹. The “self-cleavage kobs at 640 uM GlcN6P” value with glucosamine-6-phosphate [3] amounted to 0.000488 ± 6.6e-05 s⁻¹. In addition, in the series with glucosamine-6-phosphate [4], the “self-cleavage kobs at 2500 uM GlcN6P” value was determined as 0.00122 ± 0.00023 s⁻¹. Besides, in the series with glucosamine-6-phosphate [5], the “self-cleavage kobs at 10000 uM GlcN6P” value came out at 0.00206 ± 0.00025 s⁻¹.

With C50U C71G, in the series with glucosamine-6-phosphate [1], the kcat was 3.46e-05 ± 1.4e-05 s⁻¹. Further, the “self-cleavage kobs at 640 uM GlcN6P” value with glucosamine-6-phosphate [3] is 4.43e-05 ± 1e-05 s⁻¹.

As for G62A C71G, the kcat with glucosamine-6-phosphate [1] worked out at 1.44e-05 ± 2.8e-06 s⁻¹.

C58A G62A: in the series with glucosamine-6-phosphate [1], the kcat is below 1e-05 s⁻¹. Moreover, the “self-cleavage kobs at 40 uM GlcN6P” value with glucosamine-6-phosphate [6] was below 1e-05 s⁻¹. Moreover, the “self-cleavage kobs at 640 uM GlcN6P” value with glucosamine-6-phosphate [3] was below 1e-05 s⁻¹.

With G32U A64G, in the series with glucosamine-6-phosphate [1], the kcat was 0.000904 ± 0.0002 s⁻¹. For the same variant, the Michaelis constant (KM) with glucosamine-6-phosphate [2] turned out to be 3130 ± 1100 µM. In addition, in the series with glucosamine-6-phosphate [7], the “self-cleavage kobs at 160 uM GlcN6P” value is 4.19e-05 ± 1.1e-05 s⁻¹. Besides, the “self-cleavage kobs at 640 uM GlcN6P” value with glucosamine-6-phosphate [3] was 0.000178 ± 2.3e-05 s⁻¹. Moreover, in the series with glucosamine-6-phosphate [4], the “self-cleavage kobs at 2500 uM GlcN6P” value came to 0.00034 ± 4.6e-05 s⁻¹. For the same variant, in the series with glucosamine-6-phosphate [5], the “self-cleavage kobs at 10000 uM GlcN6P” value turned out to be 0.000774 ± 0.00011 s⁻¹.

For G37C A64U C68G, the turnover number (kcat) with glucosamine-6-phosphate [1] stood at 1.68e-05 ± 1.7e-06 s⁻¹. The KM in the series with glucosamine-6-phosphate [2] worked out at 29.1 ± 13 µM.

Regarding C11A U54G, in the series with glucosamine-6-phosphate [1], the catalytic constant (kcat) was determined as 0.000149 ± 2.7e-05 s⁻¹. The “self-cleavage kobs at 2500 uM GlcN6P” value in the series with glucosamine-6-phosphate [4] is 7.77e-05 ± 1.3e-05 s⁻¹. The “self-cleavage kobs at 10000 uM GlcN6P” value with glucosamine-6-phosphate [5] was found to be 0.000123 ± 1.4e-05 s⁻¹.

Regarding G13A U54G, the kcat with glucosamine-6-phosphate [1] was 0.000682 ± 7.9e-05 s⁻¹. The Michaelis constant (KM) with glucosamine-6-phosphate [2] is 2540 ± 550 µM. Moreover, the “self-cleavage kobs at 160 uM GlcN6P” value with glucosamine-6-phosphate [7] came to 5.52e-05 ± 1.8e-05 s⁻¹. Besides, in the series with glucosamine-6-phosphate [3], the “self-cleavage kobs at 640 uM GlcN6P” value was determined as 0.000123 ± 2.4e-05 s⁻¹. For the same variant, the “self-cleavage kobs at 2500 uM GlcN6P” value with glucosamine-6-phosphate [4] stood at 0.000363 ± 6.1e-05 s⁻¹. The “self-cleavage kobs at 10000 uM GlcN6P” value with glucosamine-6-phosphate [5] turned out to be 0.000537 ± 7.4e-05 s⁻¹.

On to C11A G29A, for which the turnover number (kcat) with glucosamine-6-phosphate [1] is 3.97e-05 ± 1.6e-06 s⁻¹. Moreover, the Michaelis constant (KM) with glucosamine-6-phosphate [2] amounted to 2550 ± 350 µM. The “self-cleavage kobs at 10000 uM GlcN6P” value with glucosamine-6-phosphate [5] was found to be 3.17e-05 ± 9.4e-06 s⁻¹.

Consider A53C U65A C70A C71A, for which the catalytic constant (kcat) in the series with glucosamine-6-phosphate [1] came to 1.25e-05 ± 4e-06 s⁻¹.

On to U47C G66A, for which the kcat in the series with glucosamine-6-phosphate [1] turned out to be 0.00207 ± 0.00059 s⁻¹. In addition, in the series with glucosamine-6-phosphate [2], the Michaelis constant (KM) worked out at 1050 ± 470 µM. Moreover, in the series with glucosamine-6-phosphate [6], the “self-cleavage kobs at 40 uM GlcN6P” value worked out at 0.000111 ± 2.1e-05 s⁻¹. For the same variant, the “self-cleavage kobs at 160 uM GlcN6P” value in the series with glucosamine-6-phosphate [7] turned out to be 0.00017 ± 6.1e-05 s⁻¹. Besides, the “self-cleavage kobs at 640 uM GlcN6P” value with glucosamine-6-phosphate [3] was found to be 0.000815 ± 0.0002 s⁻¹. Also, the “self-cleavage kobs at 2500 uM GlcN6P” value in the series with glucosamine-6-phosphate [4] came out at 0.00159 ± 0.00037 s⁻¹. The “self-cleavage kobs at 10000 uM GlcN6P” value with glucosamine-6-phosphate [5] was determined as 0.00183 ± 0.0004 s⁻¹.

In the case of A6G A12C, the turnover number (kcat) with glucosamine-6-phosphate [1] turned out to be 0.000313 ± 8.2e-05 s⁻¹. In addition, the “self-cleavage kobs at 2500 uM GlcN6P” value with glucosamine-6-phosphate [4] is 6.08e-05 ± 3e-05 s⁻¹. Also, in the series with glucosamine-6-phosphate [5], the “self-cleavage kobs at 10000 uM GlcN6P” value was determined as 0.000159 ± 1.7e-05 s⁻¹.

As to A15U G38A C67A C68U, in the series with glucosamine-6-phosphate [1], the catalytic constant (kcat) came to 2.38e-05 ± 7.1e-06 s⁻¹.

Consider A6G A39G, for which, in the series with glucosamine-6-phosphate [1], the catalytic constant (kcat) was found to be 0.00207 ± 0.0008 s⁻¹. Also, the “self-cleavage kobs at 160 uM GlcN6P” value with glucosamine-6-phosphate [7] came to 6.4e-05 ± 1.4e-05 s⁻¹. Further, in the series with glucosamine-6-phosphate [3], the “self-cleavage kobs at 640 uM GlcN6P” value is 0.000144 ± 2.7e-05 s⁻¹. Moreover, the “self-cleavage kobs at 2500 uM GlcN6P” value with glucosamine-6-phosphate [4] is 0.000791 ± 0.0001 s⁻¹. The “self-cleavage kobs at 10000 uM GlcN6P” value with glucosamine-6-phosphate [5] was determined as 0.00121 ± 0.00015 s⁻¹.
